# The nanobody polyreactivity screen of Harvey et al. (2022)
# Experiment: yeast display, Sf9 membrane polyspecificity reagent, FACS + sequencing; frameworks hold sequencing errors
# Outline: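 After 36–48 hours of galactose induction, yeast (Saccharomyces cerevisiae BJ5465) displaying a synthetic nanobody library were stained at 4 °C for 1 hour with 10% biotinylated, detergent-solubilized Sf9 membrane reagent. Streptavidin microbeads enriched the stained cells before FACS sorting into low and high (top ~1%) gates on anti-HA and streptavidin fluorescence. Each clone's polyreactivity label reflects its gate of origin.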
row,Sequence,polyreactivity (PSR sort gate)
1,QVQLVESGGGLVQAGGSLRLSCAASGIIFGRYAMGWYRQAPGKERELVAAISSRGGSTYYADSVKGRFTISRDNAKNTVYLQMNSLKPEDTAVYYCNKDDERGKLYYWGQGTQVTVSS,high polyreactivity
2,QVQLVESGGGLVQAGGSLRLSCAASGIIFGRYAMGWYRQAPGKERELVAAITWSGGGTYYADSVKGRFTISRDNAKNTVYLQMNSLKPEDTAVYYCAARTTPHWGYVSTNYWGQGTQVTVSS,low polyreactivity
3,QVQLVESGGGLVQAGGSLRLSCAASGIIFGRYAMGWYRQAPGKERELVATSSRGGGRTYYADSVKGRFTISRDNAKYTVYLLMNSLIPEDTAVYYCASYFYRGGLDSWGQGTQVTVSS,high polyreactivity
4,QVQLVESGGGLVQAGGSLRLSCAASGIIFGRYARGWYRQAPGKDRELVATISYRGGRTNYADSVKGRFTISRDNAKNTVYLQSNSLKPEDTAVYDCAAPHFSYSGGTHDYWGQGTQVTVSS,high polyreactivity
5,QVQLVESGGGLVQAGGSLRLSCAASGIIFGRYTMGWYRQAPGKERELVAAITSSGITYYADSVKGRFTISRDNAKNTVYLQMNSLKPEETAVYYCNADYSIPGYYWPYDYWGQGTQVTVSS,low polyreactivity
6,QVQLVESGGGLVQAGGSLRLSCAASGIIFGSNTMGWYRQAPGTERELVAAITSSDGSTHYADSVKGRFTISRDNAKNTVYLQMNRLKPEDTAVYYCAARKVTYGHSYGYDYWGQGTQVTVSS,low polyreactivity
7,QVQLVESGGGLVQAGGSLRLSCAASGIIFGSNVMGWYREAPGIERELVAAINYGGGSTYYADSVKGRFTISRDNAKKTVYLQMNSLKPEDTAVYYCAARGSRDYRYDYWGQGTQVTVSS,low polyreactivity
8,QVQLVESGGGLVQAGGSLRLSCAASGIIFGTYTMGWYRQAPGKERELVAAITYSGGRTYYADSVKGRFTISRDNAKNTVYLQMNSLKPEDTAVYYCAAYRSSWGYSPYDYWGQGTQVTVSS,high polyreactivity
9,QVQLVESGGGLVQAGGSLRLSCAASGIIFGYNAMGWYRQAPGKERELVAAINQDGSSTYYADSVKGRFTISRDNAKNTVYLQMNSLKPEDTAVYYCNARGVPRQDARMGYWGQGTQVTVSS,low polyreactivity
10,QVQLVESGGGLVQAGGSLRLSCAASGIIFGYNAMGWYRQAPGKERELVAAISTSGGSTYYADSVKGRFTISRDNAKNTVYLQMNSLKPEDTAVYYCAAGYRRTYGFNYWGQGTQVTVSS,low polyreactivity
11,QVQLVESGGGLVQAGGSLRLSCAASGIIFGYYAMGWYRQAPGKERELVAAITWSGGSTYYADSVKGRFTISRDNAKNTVYLQMNSLKPEDSAVYYCNADDDGRVSSTIVEYWGQGTQVTVSS,low polyreactivity
12,QVQLVESGGGLVQAGGSLRLSCAASGIIFGYYAMGWYRQAPGKERELVAGISSSDSTYYADSVKGRFTISRDNAKNTVYLQMNSLKPEDTAVYYCATPVYRSTYEYDYWGQGTQVTVSS,low polyreactivity
13,QVQLVESGGGLVQAGGSLRLSCAASGIIFGYYAMGWYRQATGKERELVAAINGRTGSTYYADSVKGRFTISRDNAKNTVYLQMNSLKPEDTAVYYCTAQSYKFHGDYWGQGTQVTVSS,high polyreactivity
14,QVQLVESGGGLVQAGGSLRLSCAASGIIFGYYARGWYRQAPGKARELVAAISRGGNTNYADSVKGRFTISRDNAKNTVYLQMNSLKPEDTAVYYCAADFWSRIKYFYAVDVDYWGQGTQVTVSS,low polyreactivity
15,QVQLVESGGGLVQAGGSLRLSCAASGIIFHFNAMGWYRQARGKERELVASITRGGNTNYADSVKGRFTISRDNAKNTVYLQMNSLKPEDTAVYYCAAKYRSRYDWGQGTQVTVSS,low polyreactivity
16,QVQLVESGGGLVQAGGSLRLSCAASGIIFHFNDMGWYRQAPGKERELVAAIDSTGSTNYADSVKGRFTISRDNAKNTVYLQMNSLKPEDTAVYYCAVLNHRVDSVLTRYYYWGQGTQVTVSS,low polyreactivity
17,QVQLVESGGGLVQAGGSLRLSCAASGIIFHKYSMGWYRQAPGKERELVAVITWRGGTTYYADSVKGRFTISRDNAKNTVYLQMNSLKPEDTAVYYCAAKDRSPRVRYQYEYWGQGTQVTVSS,high polyreactivity
18,QVQLVESGGGLVQAGGSLRLSCAASGIIFIGYTMGWYRQAPGKERELVAAISRIGGSTYYADSVKGRFTISRDNAKNTVYLQMNSLKPEDTAVYYCAAQYYGSSYRRGYYWGQGTQVTVSS,high polyreactivity
19,QVQLVESGGGLVQAGGSLRLSCAASGIIFINYAMGWYRQAPGTERELVAVITRGGSTYYADSVKGRFTISRDNAKNTVYLQMNSLKPEDTAVYYCNARYLSWWTGRFNYWGQGTQVTVSS,high polyreactivity
20,QVQLVESGGGLVQAGGSLRLSCAASGIIFITYAMGWYRQAPGKERELVAAITNSGGGTYYADSVKGRFTISRDNAKNTVDLQMTSLKPEDTAVYYCAARKTAYGYRYDYWGQGTQVTVSS,high polyreactivity
21,QVQLVESGGGLVQAGGSLRLSCAASGIIFIYYGMGWYRQAPGKERELVAAIARSGGRTYYADSVKGRFTISRHNAKNTVYLQMHSLKPEETAVYYCATTYTPTGFDYWGQGPQVTVSS,high polyreactivity
22,QVQLVESGGGLVQAGGSLRLSCAASGIIFKGYAMGWYRQAPGKERELVAAISQSGGSTYYADSVKGRFTISRDNAKNTVYLQMNSLKPEDTAVYYCNARYSRVVPRYYYWGQGTQVTVSS,high polyreactivity

row,Sequence,polyreactivity (PSR sort gate)
1,QVQLVESGGGLVQAGGSLRLSCAASGIIFKSYAMGWYRQAPGKERELVAAITKRGGSTYYADSVKGRFTISRDNAKNTVYLQMNSLKPEDTAVYYCAADDGVGNTDDYWGQGTQVTVSS,high polyreactivity
2,QVQLVESGGGLVQAGGSLRLSCAASGIIFKVNDMGWYRQAHGKEREFVAAITYSGDGTFYADSVKGRFTISRDNAKNTVYLQMNSLKPEDTAVYYCAADLPESPESYYDTDDYWGQGPQVTVSS,low polyreactivity
3,QVQLVESGGGLVQAGGSLRLSCAASGIIFKYYVMGWYRQAPGKERELVASIRWSGGITSYADSVKGRFTISRDNAKNTVYLQMNSLKPEDTAVYYCAVAHSRLRTAYTFSVQRYDYWGQGTQVTVSS,low polyreactivity
4,QVQLVESGGGLVQAGGSLRLSCAASGIIFLENAMGWYRQAPGKERELVAGISSGGNTNYADSVKGRFTISRDNAKNTVYLQMNSLKPEDTALYYCNKFGYHREYDYWGQVTQVTVSS,low polyreactivity
5,QVQLVESGGGLVQAGGSLRLSCAASGIIFLVNAMGWYRQAPGKESELVATITSGGSTYADSVKGRFTISRDNAKYTVYLQMNSLKPEDTAVYYCAAVRRRRNSYGYWGQGTQVTVSS,high polyreactivity
6,QVQLVESGGGLVQAGGSLRLSCAASGIIFLWYAMRWYRQAPGKERELVAAISRTGSSTYYADSVKGRFTISRDTAKNTVYLQMNSLKPEDTAVYYCAAAYYSNRSWRFDYWGQGTQVTVSS,high polyreactivity
7,QVQLVESGGGLVQAGGSLRLSCAASGIIFLYNDMGGYRHAPGKEREFVATISRSGGSTYYADSVKGRFTISRDNAKNTVYLQMNSLKPEDTAVYYCAADEDSGYGYWGQGTQVTVSS,low polyreactivity
8,QVQLVESGGGLVQAGGSLRLSCAASGIIFNKYAMGWYRQAPGKEREFVAAITYRGGSTYYADSVKGRFTISRDNAKNTVYLQMNSLKPEDTAVYYCAARRITTYYYWGQGTQVTVSS,high polyreactivity
9,QVQLVESGGGLVQAGGSLRLSCAASGIIFNSNAMGWYRQAPGKERELVAAISVSGGSTYYADSVKGRFTISRDNAKNTVYLQMNILKPEDTAVYYCAAVFYYWSLRSYYWGQGTQVTVSS,high polyreactivity
10,QVQLVESGGGLVQAGGSLRLSCAASGIIFNWYAMGWYRQAPGKERELVAGISTSGGSTYYADSVKGRFTISRDNAKNTVYLQMNSLKPEDTAVYYCAARSRRYYGYDYWGQGTQVTVSS,high polyreactivity
11,QVQLVESGGGLVQAGGSLRLSCAASGIIFPFYGMGWYRPAPGKERELVAAITSGDDTYYADSVKGRFTISRDNAKNTVYLQMNSLKPEDTAVYYCNKRVYIAGYWPQLYYIMDYWGQGTQVTVSS,low polyreactivity
12,QVQLVESGGGLVQAGGSLRLSCAASGIIFPGYAMGWYRQAPGKERELVAAISRSGASTYYADSVKGRFTISRDNAKNTVYLQMNSLKPEDTAVYYCAAEWYRGGEYRRYDYWGQGTQVTVSS,high polyreactivity
13,QVQLVESGGGLVQAGGSLRLSCAASGIIFPGYAMGWYRQAPGKERELVAAISSSGSSTYYADSVKGRFTISRDNGKNTVYLQMNSLKPEDTAVYYCAAVRYGLRRMDYWGQGTQVTVSS,high polyreactivity
14,QVQLVESGGGLVQAGGSLRLSCAASGIIFPKYVMGWYRKAPGKERELVAAISWSGTSTYYADSVKGRFTISRDNAKNTVYLQMNSLKPEDTAVYYCAARWSSTTGRFDYWGQGTQVTVSS,high polyreactivity
15,QVQLVESGGGLVQAGGSLRLSCAASGIIFPPYAMGWYRQAPGKEREFVAGITSSGGTYYADSVKGRFTISRDNAKNTVFLQMNSLKPDDTAVYYCAARQGNLRRGFRWFNYWGQGTQVTVSS,high polyreactivity
16,QVQLVESGGGLVQAGGSLRLSCAASGIIFPRYAMGWYRQAPGKEREVVAAITSGGSTYYADSVKGRFTISRDNAKNTVYLQINSLKPEDTAVSYCAAVRYSWDIYREYYYWGQGTQVTVSS,high polyreactivity
17,QVQLVESGGGLVQAGGSLRLSCAASGIIFPRYAMGWYRQEPGKERELVAAITRRGGRTYYADSVKGRFTISRDNAKNTVYLQMNSLKPEDTAVYYCAARKVNRGSGGYDSWGQGTQVTVSS,high polyreactivity
18,QVQLVESGGGLVQAGGSLRLSCAASGIIFPSYAMGWYRQAPGKERELVAGISSGGNTYYADSVKGRFTISRDNAKNTVYLQMNSLKPEDTAVYYCATAFAIWGLYYGYDYWGQGTQVTVSS,low polyreactivity
19,QVQLVESGGGLVQAGGSLRLSCAASGIIFPSYDMGWYRQAPGKERELVAGITDGGDTTYADSVKWRFTISRDNAKNTVYLQMNSLKPEDTAVYYCAADIGYGYWHFDYWGQGTQVTVSW,low polyreactivity
20,QVQLVESGGGLVQAGGSLRLSCAASGIIFPWYDMGWYRQAPGKERELVAGITDGGDTTYADSVKWRFTISRDNAKNTVYLQMNSLKPEDTAVYYCAADIGYGYWHFDYWGQGTQVTVSS,low polyreactivity
21,QVQLVESGGGLVQAGGSLRLSCAASGIIFPWYTMGWYRQAPGKERELVAAISSGGRTNYADSVKGRFTISRDNAKYTVYLQMNSLKPEDTAVYYCAAKYYRDRDWGQGTQVTVSS,high polyreactivity
